Laboratory results published in the supplement of paper PMC9876800.

Tested on: peptide library, one residue held at a place counted from the S/T acceptor
Test: relative phosphorylation of the sub-library (ratio to the mean residue at this position); higher = residue favoured
Outline: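 Spots on streptavidin membranes were phosphorimaged and quantified by densitometry to measure phosphorylation of biotinylated degenerate peptide sub-libraries by purified recombinant kinases, human or orthologue constructs. The reactions ran in 384-well plates for 90 min under kinase-specific conditions, with peptides at 50 μM and 50 μM ATP spiked with γ-32P-ATP. Relative sub-library phosphorylation is the ratio to the mean residue at that position.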

Chain of RPS6KA1, construct: Full length, human (Q15418 whole entry, looked up): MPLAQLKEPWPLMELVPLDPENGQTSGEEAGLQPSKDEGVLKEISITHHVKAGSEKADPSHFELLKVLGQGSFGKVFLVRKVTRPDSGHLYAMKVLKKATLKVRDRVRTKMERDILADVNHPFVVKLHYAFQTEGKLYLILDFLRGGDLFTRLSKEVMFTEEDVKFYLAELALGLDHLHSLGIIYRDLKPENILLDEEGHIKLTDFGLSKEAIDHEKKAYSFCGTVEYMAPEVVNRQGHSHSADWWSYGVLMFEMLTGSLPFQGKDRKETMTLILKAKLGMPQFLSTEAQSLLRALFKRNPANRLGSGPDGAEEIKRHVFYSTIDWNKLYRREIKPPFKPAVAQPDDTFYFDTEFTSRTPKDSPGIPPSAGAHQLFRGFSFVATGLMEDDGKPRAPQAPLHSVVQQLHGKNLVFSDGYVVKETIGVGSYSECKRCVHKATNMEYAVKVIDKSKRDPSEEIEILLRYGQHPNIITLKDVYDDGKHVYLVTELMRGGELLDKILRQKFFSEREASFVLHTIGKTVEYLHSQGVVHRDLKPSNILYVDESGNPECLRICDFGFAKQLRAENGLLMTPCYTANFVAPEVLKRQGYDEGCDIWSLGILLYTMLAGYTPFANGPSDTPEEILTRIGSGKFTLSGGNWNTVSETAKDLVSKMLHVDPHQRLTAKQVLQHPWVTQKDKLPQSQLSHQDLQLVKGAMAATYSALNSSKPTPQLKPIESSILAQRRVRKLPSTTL
Chain of BMPR2, construct: aa172-end, human (Q13873 172-1038, looked up): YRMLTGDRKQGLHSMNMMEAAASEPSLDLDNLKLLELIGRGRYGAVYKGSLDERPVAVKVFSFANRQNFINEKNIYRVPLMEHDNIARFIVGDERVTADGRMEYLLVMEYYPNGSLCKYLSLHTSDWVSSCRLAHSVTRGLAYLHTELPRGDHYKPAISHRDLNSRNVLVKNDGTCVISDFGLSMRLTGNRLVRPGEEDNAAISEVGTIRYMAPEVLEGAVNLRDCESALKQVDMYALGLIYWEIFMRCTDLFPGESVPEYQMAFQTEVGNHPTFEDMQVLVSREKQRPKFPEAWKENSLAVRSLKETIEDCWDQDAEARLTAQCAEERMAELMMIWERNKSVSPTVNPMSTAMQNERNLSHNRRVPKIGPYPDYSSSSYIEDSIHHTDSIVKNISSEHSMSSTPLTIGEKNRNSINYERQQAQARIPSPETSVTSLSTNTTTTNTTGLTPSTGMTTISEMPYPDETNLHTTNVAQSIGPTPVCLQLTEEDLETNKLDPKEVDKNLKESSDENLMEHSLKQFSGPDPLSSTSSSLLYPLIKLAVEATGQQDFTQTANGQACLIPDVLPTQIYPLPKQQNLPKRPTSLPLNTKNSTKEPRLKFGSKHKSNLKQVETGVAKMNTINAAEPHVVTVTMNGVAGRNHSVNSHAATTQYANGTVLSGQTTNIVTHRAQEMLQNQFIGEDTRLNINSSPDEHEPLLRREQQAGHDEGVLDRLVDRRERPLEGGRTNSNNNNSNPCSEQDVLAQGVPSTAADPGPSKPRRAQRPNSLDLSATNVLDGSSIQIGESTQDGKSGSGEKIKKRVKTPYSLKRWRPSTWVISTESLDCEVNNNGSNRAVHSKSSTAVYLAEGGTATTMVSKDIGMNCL

PRKACA, construct: Full length, human (from UniProt P17612)
relative phosphorylation
Details | at +1 | at +2 | at +3 | at +4 | at -1 | at -2 | at -3 | at -4 | at -5
A fixed | 0.926 | 1.32 | 0.946 | 0.869 | 0.966 | 0.373 | 0.581 | 1.11 | 1.08
D fixed | 0.659 | 1.28 | 1.04 | 1.17 | 0.57 | 0.148 | 0.148 | 0.696 | 0.581
E fixed | 0.547 | 0.718 | 0.99 | 1.26 | 0.468 | 0.122 | 0.159 | 0.757 | 0.606
F fixed | 1.33 | 1.06 | 0.999 | 0.813 | 0.713 | 0.19 | 0.197 | 0.637 | 0.996
G fixed | 0.81 | 1.09 | 1.06 | 1.1 | 1.26 | 0.308 | 0.503 | 1.24 | 1.19
H fixed | 0.909 | 1.75 | 1.32 | 1.13 | 1.29 | 0.538 | 1.14 | 1.07 | 1.16
I fixed | 1.33 | 0.697 | 0.625 | 0.91 | 0.334 | 0.147 | 0.152 | 0.606 | 0.671
K fixed | 1.06 | 0.686 | 0.888 | 0.791 | 1.84 | 3.87 | 2.61 | 1.93 | 1.86
L fixed | 1.41 | 0.719 | 0.919 | 0.885 | 0.874 | 0.227 | 0.152 | 0.751 | 0.715
M fixed | 1.2 | 0.772 | 0.774 | 0.898 | 1.07 | 0.198 | 0.192 | 0.837 | 0.748
N fixed | 0.887 | 1.05 | 1.11 | 1.11 | 1.34 | 0.299 | 0.305 | 0.839 | 0.894
P fixed | 0.293 | 1.03 | 1.43 | 1.52 | 1.27 | 0.197 | 0.63 | 0.941 | 0.898
Q fixed | 1.03 | 1.15 | 1.01 | 1.07 | 0.951 | 0.563 | 0.644 | 0.982 | 0.783
R fixed | 1.04 | 0.818 | 1.04 | 0.971 | 1.76 | 9.26 | 8.72 | 2.43 | 2.05
V fixed | 1.33 | 0.953 | 0.696 | 0.779 | 0.468 | 0.155 | 0.179 | 0.631 | 0.744
W fixed | 1.27 | 0.905 | 1.16 | 0.999 | 0.775 | 0.208 | 0.324 | 0.772 | 1.13
Y fixed | 0.967 | 0.992 | 1 | 0.732 | 1.04 | 0.199 | 0.373 | 0.771 | 0.892
pThr fixed | 0.891 | 0.743 | 0.951 | 1.62 | 0.312 | 0.225 | 0.261 | 0.625 | 0.644
pTyr fixed | 0.993 | 1.03 | 1.14 | 1.42 | 0.798 | 0.214 | 0.283 | 0.742 | 0.703

RPS6KA1, construct: Full length, human (from UniProt Q15418)
relative phosphorylation
Details | at +1 | at +2 | at +3 | at +4 | at -1 | at -2 | at -3 | at -4 | at -5
A fixed | 0.899 | 1.02 | 0.983 | 0.839 | 0.926 | 0.75 | 0.694 | 1.2 | 0.916
D fixed | 0.459 | 0.887 | 1.1 | 1.25 | 0.593 | 0.724 | 0.524 | 0.574 | 0.439
E fixed | 0.784 | 0.691 | 1.13 | 1.03 | 0.408 | 0.614 | 0.424 | 0.703 | 0.364
F fixed | 1.09 | 0.767 | 1 | 0.816 | 0.796 | 0.684 | 0.365 | 0.817 | 0.822
G fixed | 0.654 | 0.939 | 1.08 | 0.985 | 1.19 | 1.2 | 0.737 | 1.22 | 0.977
H fixed | 1.15 | 1.55 | 1.24 | 1.05 | 1.06 | 1.14 | 0.549 | 0.857 | 0.935
I fixed | 1.3 | 1.05 | 0.853 | 0.76 | 0.404 | 0.546 | 0.331 | 0.931 | 0.849
K fixed | 0.881 | 0.77 | 0.686 | 1.14 | 1.21 | 1.86 | 1.32 | 1.63 | 1.84
L fixed | 0.969 | 0.816 | 1.05 | 0.785 | 0.942 | 1.14 | 0.388 | 0.895 | 1.18
M fixed | 1.1 | 0.774 | 0.93 | 0.791 | 1.04 | 0.897 | 0.487 | 1.05 | 0.72
N fixed | 1.02 | 1.04 | 0.822 | 1.01 | 1.14 | 0.732 | 0.506 | 0.722 | 0.67
P fixed | 0.625 | 0.615 | 0.914 | 1.47 | 2.71 | 0.581 | 0.76 | 0.979 | 0.993
Q fixed | 1.39 | 0.817 | 0.94 | 1.21 | 0.997 | 1.15 | 0.538 | 0.83 | 0.696
R fixed | 1.07 | 1.2 | 0.875 | 0.914 | 1.25 | 3.29 | 8.19 | 2.05 | 2.91
V fixed | 1.62 | 1.14 | 0.801 | 0.819 | 0.592 | 0.441 | 0.315 | 0.79 | 0.75
W fixed | 0.884 | 1.16 | 1.34 | 1.16 | 0.739 | 0.597 | 0.482 | 0.978 | 1.1
Y fixed | 1.1 | 1.77 | 1.26 | 0.969 | 1.01 | 0.649 | 0.39 | 0.779 | 0.841
pThr fixed | 1.51 | 0.917 | 1.17 | 1.95 | 0.284 | 0.293 | 0.348 | 0.573 | 0.527
pTyr fixed | 1.32 | 0.957 | 1.59 | 1.17 | 0.522 | 0.33 | 0.332 | 0.413 | 0.526

BMPR2, construct: aa172-end, human (from UniProt Q13873)
relative phosphorylation
Details | at +1 | at +2 | at +3 | at +4 | at -1 | at -2 | at -3 | at -4 | at -5
A fixed | 0.89 | 1 | 0.941 | 0.96 | 0.845 | 0.887 | 0.99 | 1.11 | 1.08
D fixed | 0.946 | 1.13 | 0.871 | 0.94 | 0.963 | 1.86 | 1.24 | 1.1 | 1.08
E fixed | 1.08 | 1.08 | 0.844 | 0.951 | 0.944 | 1.91 | 1.19 | 1.18 | 1.04
F fixed | 0.929 | 0.88 | 0.927 | 0.94 | 1.1 | 0.825 | 0.977 | 0.973 | 1.06
G fixed | 0.969 | 1.04 | 1.1 | 1.02 | 0.839 | 1.05 | 1.08 | 1.01 | 1.06
H fixed | 1.1 | 1.04 | 1.03 | 1 | 1.01 | 0.904 | 1.08 | 0.978 | 0.96
I fixed | 1.02 | 0.889 | 0.92 | 0.868 | 0.862 | 0.728 | 0.892 | 0.911 | 0.971
K fixed | 0.831 | 1.03 | 1.04 | 1.1 | 0.822 | 0.791 | 0.835 | 0.935 | 0.913
L fixed | 1.04 | 0.905 | 0.934 | 0.935 | 1.1 | 0.786 | 0.869 | 0.928 | 0.913
M fixed | 1.15 | 0.989 | 0.93 | 0.943 | 1.24 | 0.797 | 0.955 | 0.936 | 0.895
N fixed | 1.02 | 0.987 | 1.01 | 0.963 | 0.968 | 1.05 | 1.03 | 0.938 | 0.898
P fixed | 0.724 | 1.02 | 1.17 | 1.08 | 0.738 | 0.809 | 0.965 | 1.09 | 0.948
Q fixed | 1.04 | 1.01 | 0.949 | 0.973 | 0.986 | 1.15 | 1.04 | 0.919 | 0.861
R fixed | 0.933 | 1 | 1.22 | 1.18 | 0.905 | 0.816 | 0.873 | 0.867 | 0.956
V fixed | 0.999 | 0.972 | 0.989 | 0.926 | 1.03 | 0.822 | 0.862 | 0.979 | 1.01
W fixed | 1.1 | 0.94 | 0.998 | 1.16 | 1.24 | 0.855 | 1.03 | 1.05 | 1.18
Y fixed | 1.24 | 1.1 | 1.12 | 1.05 | 1.4 | 0.95 | 1.11 | 1.09 | 1.18
pThr fixed | 1.02 | 1.04 | 0.847 | 0.873 | 0.862 | 0.993 | 1.15 | 1.08 | 0.979
pTyr fixed | 0.907 | 0.891 | 0.883 | 0.86 | 1.56 | 1.06 | 1.34 | 1.1 | 1.07
